According to patent publication US20210388087A1 (Chugai, published 2021):

B1: dBBDu167 (antibody, human IgG1, V domains shown)
VH: QVQLVESGGGLVQPGRSLRLSCAASGFTFSNAWMHWVRQAPGKGLEWVAQIKDKGNLYAAYYAPSVKGRFTISRDDSKNSIYLQMNSLKTEDTAVYYCHYVHYASAGGGLPGFGVDAWGQGTTVTVSS
VL: DIVMTQSPLSLPVTPGEPASISCRSSQSLVHSNRNTYLHWYQQKPGQAPRLLIYKVSNRFSGVPDRFSGSGSGTDFTLKISRVEAEDVGVYYCGQGTQVPYTFGQGTKLEIK
notes: human IgG1; GLS3000 light chain
B2: dBBDu199 (antibody, human IgG1, V domains shown)
VH: QVQLVESGGGLVQPGRSLRLSCAASGFTFSNAWMHWVRQAPGKGLEWVAQIKDKQSGYNTYYAPSVKGRFTISRDDSKNSIYLQMNSLKTEDTAVYYCHYVHYASASTVLPAFGVDAWGQGTTVTVSS
VL: DIVMTQSPLSLPVTPGEPASISCRSSQSLVHSNRNTYLHWYQQKPGQAPRLLIYKVSNRFSGVPDRFSGSGSGTDFTLKISRVEAEDVGVYYCGQGTQVPYTFGQGTKLEIK
notes: as for B1
B3: dBBDu173 (antibody, human IgG1, V domains shown)
VH: QVQLVESGGGLVQPGRSLRLSCAASGFTFSNAWMHWVRQAPGKGLEWVAQIKDKGNLYAAYYAPSVKGRFTISRDDSKNSIYLQMNSLKTEDTAVYYCHYVHYASAGGGLSAYGVDAWGQGTTVTVSS
VL: DIVMTQSPLSLPVTPGEPASISCRSSQSLVHSNRNTYLHWYQQKPGQAPRLLIYKVSNRFSGVPDRFSGSGSGTDFTLKISRVEAEDVGVYYCGQGTQVPYTFGQGTKLEIK
notes: as for B1
B4: dBBDu181 (antibody, human IgG1, V domains shown)
VH: QVQLVESGGGLVQPGRSLRLSCAASGFTFSNAWMHWVRQAPGKGLEWIAQIKDRGNNYNNYYAPSVKGRFTISRDDSKNSIYLQMNSLKTEDTAVYYCHYVHYATASTLLGAYGVDAWGQGTTVTVSS
VL: DIVMTQSPLSLPVTPGEPASISCRSSQSLVHSNRNTYLHWYQQKPGQAPRLLIYKVSNRFSGVPDRFSGSGSGTDFTLKISRVEAEDVGVYYCGQGTQVPYTFGQGTKLEIK
notes: as for B1
B5: dBBDu196 (antibody, human IgG1, V domains shown)
VH: QVQLVESGGGLVQPGRSLRLSCAASGFTFSNAWMHWVRQAPGKGLEWVAQIKDRGNAYNAYYAESVKGRFTISRDDSKNSIYLQMNSLKTEDTAVYYCHYVHYASASTVLPAFGVDAWGQGTTVTVSS
VL: DIVMTQSPLSLPVTPGEPASISCRSSQSLVHSNRNTYLHWYQQKPGQAPRLLIYKVSNRFSGVPDRFSGSGSGTDFTLKISRVEAEDVGVYYCGQGTQVPYTFGQGTKLEIK
notes: as for B1
B6: dBBDu193 (antibody, human IgG1, V domains shown)
VH: QVQLVESGGGLVQPGRSLRLSCAASGFTFSNAWMHWVRQAPGKGLEWVAQIKDRSNQYATYYAPSVKGRFTISRDDSKNSIYLQMNSLKTEDTAVYYCHYVHYSAASTLLPSFGVDAWGQGTTVTVSS
VL: DIVMTQSPLSLPVTPGEPASISCRSSQSLVHSNRNTYLHWYQQKPGQAPRLLIYKVSNRFSGVPDRFSGSGSGTDFTLKISRVEAEDVGVYYCGQGTQVPYTFGQGTKLEIK
notes: as for B1
B7: dBBDu186 (antibody, human IgG1, V domains shown)
VH: QVQLVESGGGLVQPGRSLRLSCAASGFTFSNAWMHWVRQAPGKGLEWVAQIKDRSNQYATYYAPSVKGRFTISRDDSKNSIYLQMNSLKTEDTAVYYCHYVHYAQASTVLPAFGVDAWGQGTTVTVSS
VL: DIVMTQSPLSLPVTPGEPASISCRSSQSLVHSNRNTYLHWYQQKPGQAPRLLIYKVSNRFSGVPDRFSGSGSGTDFTLKISRVEAEDVGVYYCGQGTQVPYTFGQGTKLEIK
notes: as for B1
B8: dBBDu189 (antibody, human IgG1, V domains shown)
VH: QVQLVESGGGLVQPGRSLRLSCAASGFTFSNAWMHWVRQAPGKGLEWIAQIKDRSNQYATYYAPSVKGRFTISRDDSKNSIYLQMNSLKTEDTAVYYCHYVHYAQASSLLPSFGVDAWGQGTTVTVSS
VL: DIVMTQSPLSLPVTPGEPASISCRSSQSLVHSNRNTYLHWYQQKPGQAPRLLIYKVSNRFSGVPDRFSGSGSGTDFTLKISRVEAEDVGVYYCGQGTQVPYTFGQGTKLEIK
notes: as for B1

Each binder was assayed against T1, biotin-labeled human CD137 fused to human IgG1 Fc fragment (human, UniProt Q07011 24-186, biotin-labeled) (assay: bead ELISA, 1250 ng IgG, S/N over biotin-human Fc).
T1 construct: also called human CD137-Fc; biotin-human CD137-Fc; not shown: human IgG1 Fc fragment
T1 sequence (Q07011 24-186 limits assumed): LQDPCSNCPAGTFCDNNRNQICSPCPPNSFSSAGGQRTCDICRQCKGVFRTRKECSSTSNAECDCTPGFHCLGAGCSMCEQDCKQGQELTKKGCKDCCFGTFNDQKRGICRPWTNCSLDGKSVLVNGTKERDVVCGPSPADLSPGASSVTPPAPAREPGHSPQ

Binding result, binds:
B1, B2, B3, B4, B5, B6, B7, B8
